Patent US20120003244A1 (published 2012)

Molecular target: T1, c-myc-tagged wild-type human APCDD1 (human, UniProt Q8J025 27-514, limits assumed)
T1 construct: Expressed from pCXN2.1 in HEK293T cells; also called c-myc-tagged APCDD1; not shown: C-terminal c-myc tag
Test: immunoprecipitation with anti-c-myc antibody from co-transfected HEK293T cells, western blot with anti-HA
Source text: To examine the 130 KDa fragment, we overexpressed both HA-tagged and c-myc-tagged APCDD1 in HEK293T cells, and performed immunoprecipitation using an anti-c-myc antibody, which was followed by western blot with an anti-HA antibody. […] By contrast, only a faint fragment, 52 KDa in size, was detected in total cell lysate of the L9R mutant construct-transfected cells (FIG. 3C; lane 2, top panel). In addition, a 65 KDa fragment was detected in the medium of the wild-type and the control L9V mutant APCDD1 construct-transfected cells, while no fragment in the medium of the L9R mutant construct-transfected cells (FIG. 3C; lanes 1-3, bottom panel).
Immunoprecipitation. Expression plasmids of HA-tagged APCDD1 and c-myc-tagged APCDD1 (4 μg each) were co-transfected into HEK293T cells as described above. 48 h after the transfection, the cells were harvested and homogenized in lysis buffer (50 mM Tris-HCl (pH 8.0), 150 mM NaCl, 0.5% NP40, and 1× Complete Mini Protease Inhibitor Cocktail). Total cell lysates were collected by centrifugation at 14,000 rpm for 20 min at 4° C. The samples were incubated with 0.3 μg of normal rabbit IgG (Santa Cruz Biotechnology) and 10 μl of protein A/G plus agarose (Santa Cruz) for 30 min at 4° C., and centrifuged at 10,000 rpm for 1 min at 4° C. […]

B1: C-terminal HA-tagged wild-type human APCDD1 (SWAMP-HA; pCXN2.1-Wt-SWAMP-HA) (receptor)
chain: not shown
notes: Expressed from pCXN2.1 in HEK293T cells; also called HA-tagged APCDD1; HA-tagged SWAMP; not shown: C-terminal HA (hemagglutinin) tag
B1: binds.
